From patent US11299526B2, “p53-BAD fusion proteins” (University of Utah Research Foundation, priority 2018, dated 2022)
Substitutions are numbered along the chain they refer to. In names and notes the source's numbering stands. Entries after “also recorded” stand apart in the source; their conditions may differ.

B1: Bad/112,136: Bad with S112A and S136A mutations (SEQ ID NO:2), no p53, negative control (protein)
chain: MFQIPEFEPSEQEDSSSAERGLGPSPAGDGPSGSGKHHRQAPGLLWDASHQQEQPTSSSHHGGAGAVEIRSRHSAYPAGTEDDEGMGEEPSPFRGRSRAAPPNLWAAQRYGRELRRMSDEFVDSFKKGLPRPKSAGTATQMRQSSSWTRVFQSWWDRNLGRGSSAPSQ
modifications: mutated BAD peptide
B2: Bad: EGFP-tagged human Bad without p53 (SEQ ID NO:1), negative control (protein, UniProt Q92934 1-168, looked up)
Bcl2-associated agonist of …: B1 chain with A75S, A99S
modifications: EGFP tag

Experiments:
OVCAR-3 cells [1] = details: cited from earlier work
[2] = Preliminary toxicity study, IP injected polymer and polymer-Ad; details: mouse, in vivo
Kuramochi cells [3] = assay: Paclitaxel cell viability assay; assay type: cell-based; details: Homo sapiens, 48 hr
Protocol: Paclitaxel powder (LC Laboratories; Wobum, Mass.) was dissolved in DMSO to 10 mg/mL to make a stock solution. To determine the paclitaxel IC50 in Kuramochi cells, 8×10^3 Kuramochi cells were seeded in 96-well plates 24 hr prior to drug treatment. Paclitaxel in complete growth medium was added at increasing concentrations, and the cells were incubated for 48 hr. The Aqueous One Cell Proliferation Assay (Promega) was used to assess cell viability. For gene transfection and paclitaxel combination treatment, the cells were transfected first. 4 hr after transfection, paclitaxel was added at 100 nM or 200 nM, and the cells were incubated for 48 hr as previously optimized by our lab.
After confirming the high apoptotic potential of p53-Bad/112,136, we wanted to test the possibility of combining p53-Bad/112,136 gene therapy with paclitaxel, a standard-of-care for HGSC. Based on a genomic and gene expression profile study with 47 ovarian cancer cell lines, Kuramochi was identified to be the best model for high grade serous ovarian cancer, with the highest genetic similarity to ovarian tumors. The IC50 of paclitaxel was determined using a cell viability […] assay. Kuramochi cells were incubated with different paclitaxel concentrations ranging from 0 nM to 1000 nM for 48 hr. The IC50 value was determined to be approximately 100 nM. […]

SKOV-3 cells [4] = assay: Mitochondrial localization of EGFP-tagged constructs, fluorescence microscopy with PCC analysis; assay type: cell-based, human; details: mitochondria stained with MitoTracker Red, CMV promoter
Protocol: (§1) Images of p53-BH3 (EGFP tagged on N-terminus) can be acquired 18 h post-transfection with an Olympus IX71F fluorescence microscope with a F-View Monochrome CCD camera and analyzed with ImageJ using Pearson's correlation coefficient (PCC) and post Costes' algorithm. PCC≥0.6 are considered to be colocalized. […] Apoptosis assay: 7-AAD assay (measuring late-stage apoptosis) can be performed as done before as an initial screen. As before, cells can be stained with […] working solution of 7-aminoactinomycin D (7-AAD) 24 hr post-transfection. Cells can be analyzed and gated for EGFP with the same fluorescence intensity to ensure equal detection of proteins
24 hr post-transfection, cells were stained in PBS solution containing 200 nM MitoTracker Red CM-H2Xros (Thermo Scientific), 1:100 dilution of ProLong Live Antifade Reagent (Thermo Scientific), and 2 μM Hoechst stain. The cells were incubated for 20 minutes protected from light. Images were acquired using a Nikon AIR fluorescence confocal microscope with 60× Plan Apo Oil immersion objective (core facility, University of Utah). The images were visualized using NIS element software with built in EGFP, MitoTracker Red, and DAPI filters. Co-localization analyses were performed using the JACoP plugin for ImageJ software. […] The experiments were performed three times with 10 cells analyzed each experiment for a total of 30 cells per gene constructs.

p53-Luc Cis-Reporter = assay: Nuclear transcriptional activity p53 luciferase reporter gene assay; assay type: cell-based; details: SKOV-3, OVCAR-3, ID8 and Kuramochi cells, 24 hr post-transfection
Protocol: All constructs (3.5 μg of DNA) were co-transfected with 3.5 μg of p53-Luc Cis-reporter plasmid encoding a firefly luciferase gene (Agilent Technologies; Santa Clara, Calif.) and 0.35 μg of pRL-SV40 plasmid encoding a Renilla luciferase gene (Promega; Madison, Wis.). Renilla luciferase was used to normalize for transfection efficiency in respective cell lines. The Dual-Glo Luciferase Assay System (Promega) was used to determine the firefly luciferase activity and Renilla luciferase activity per manufacturer's recommendation 24 hr post-transfection as before. The luminescence signal was detected using the Infinite M1000 microplate reader (Tecan; Männedorf, Switzerland). The Dual-Glo luciferase assay was performed in triplicate.

SKOV-3 cells [5] = assay: 7-AAD late apoptosis/cell death assay; assay type: cell-based, human; details: SKOV-3, 24 hr post-transfection
Protocol: as §1
(§2) 7-AAD assay was performed as before (14, 15). Briefly, the cells were collected 24 hr post-transfection. The cell pellets were resuspended in 300 μL of 1.25 μg/mL 7-AAD in PBS. The cells were incubated on ice for 20 minutes, and analyzed using FACS-Canto-II similar to the TMRE assay. The cells were gated for EGFP positive (excitation at 480 nm and emission at 535 nm) and 7-AAD positive (excitation at 496 nm and emission at 785 nm). The constructs were assayed in triplicates. The lowest and highest values were set at 0% and 100%, respectively (relative 7-AAD) as before (14).

ID8 cells = assay: 7-AAD late apoptosis/cell death assay; assay type: cell-based, mouse; details: ID8, 24 hr post-transfection
Protocol: as §1, §2

[6] = test system: SKOV-3, OVCAR-3, ID8 and Kuramochi cells; assay: 7-AAD late apoptosis/cell death assay, statements for all four ovarian cancer cell lines; assay type: cell-based, human, mouse; details: 24 hr post-transfection
Protocol: as §2

OVCAR-3 cells [7] = assay: TMRE mitochondrial depolarization (MOMP) assay; assay type: cell-based, human; details: OVCAR-3, 20 hr post-transfection
Text: […] Flow cytometry can be used to analyze […] cells using the PE-A channel (excitation at 561 nm with emission at 585/15). Loss in TMRE intensity represents mitochondrial depolarization, which correlates to mitochondrial outer membrane permeabilization (MOMP). […] Bad alone constructs may have some activity, but may be weaker or slower acting than p53-Bad constructs. This underscores the importance of using apoptotic, cell death, proliferation, and oncogenic assays to paint a complete picture of construct potency/efficacy.
(§3) […] Cells were incubated for 30 minutes at 37° C. then analyzed using flow cytometry (FACS-Canto-II with FACS Diva software, core facility, University of Utah) as described before. EGFP was excited at 488 nm with emission filter 530/35, and TMRE was excited at 561 nm with emission filter 585/15. The loss in TMRE intensity indicates mitochondrial depolarization, which correlates with an increase in the permeabilization of the mitochondrial outer membrane (MOMP). Each construct was transfected independently and tested in triplicates (n=3). The lowest MOMP value was set as 0%, and the highest MOMP value as 100% as before.

[8] = test system: SKOV-3, OVCAR-3, ID8 and Kuramochi cells; assay: TMRE mitochondrial depolarization (MOMP) assay, statements for the four ovarian cancer cell lines; assay type: cell-based, human, mouse; details: four cell lines of FIG. 17, 20 hr post-transfection
Protocol: as §3

Kuramochi cells [9] = assay: 7-AAD assay of constructs combined with paclitaxel; assay type: cell-based, human; details: paclitaxel 100 nM or 200 nM added 4 hr after transfection, 48 hr
Protocol: The IC50 of paclitaxel was determined using a cell viability MTT assay. Kuramochi cells were incubated with different paclitaxel concentrations ranging from 0 nM to 1000 nM for 48 hr. […] A control group without paclitaxel (0 nM) was also included. The cells were incubated for 48 hr before the 7-AAD assay.

| Molecule | subcellular localization of EGFP-tagged construct (SKOV-3 cells [4]) | nuclear transcriptional activity (firefly luciferase) (p53-Luc Cis-Reporter) | apoptosis / cell death (7-AAD) (SKOV-3 cells [5]) | apoptosis / cell death (7-AAD) (ID8 cells) | apoptosis / cell death (7-AAD) [6] | mitochondrial depolarization / % MOMP induction (TMRE) (OVCAR-3 cells [7]) | mitochondrial depolarization / % MOMP induction (TMRE) [8] | other results |
| --- | --- | --- | --- | --- | --- | --- | --- | --- |
| CN(C)CC[C@H](CSc1ccccc1)Nc1ccc(S(=O)(=O)NC(=O)c2ccc(N3CCN(Cc4ccccc4-c4ccc(Cl)cc4)CC3)cc2)cc1[N+](=O)[O-] [ABT-737] | – | – | – | – | – | – | – | IC50 (OVCAR-3 cells [1]): 10 ± 4 µM |
| poly (cystaminebisacryl-amide-diaminohexane)-polyethylene glycol linked to RGD (Arg-Gly-Asp) [polymer alone] | – | – | – | – | – | – | – | immunogenicity at injection site [2]: no swelling, inflammation, or redness at injection site |
| CC(=O)O[C@H]1C(=O)[C@@]2(C)[C@H]([C@H](OC(=O)c3ccccc3)[C@]3(O)C[C@H](OC(=O)[C@H](O)[C@@H](NC(=O)c4ccccc4)c4ccccc4)C(C)=C1C3(C)C)[C@]1(OC(C)=O)CO[C@@H]1C[C@@H]2O [paclitaxel] | – | – | – | – | – | – | – | IC50 (Kuramochi cells [3]): ~0.1 µM |
| B1 | mitochondrial localization; also recorded: effectively localize to the mitochondria | do not activate firefly luciferase | inactive | inactive | comparable to EGFP (negative control) except in OVCAR-3 cells; also recorded: apoptotic activity diminishes | some activity | significant level of % MOMP | effect of deleting the BH3 domain of Bad on activity (TMRE) (OVCAR-3 cells [7]; FIG. 20): significantly reduces the activity; effect of added paclitaxel on the activity of the construct (7-AAD) (Kuramochi cells [9]): does not seem to increase |
| B2 | found in the cytoplasm | do not activate firefly luciferase | inactive | inactive | comparable to EGFP (negative control) except in OVCAR-3 cells; also recorded: apoptotic activity diminishes | some activity | significant level of % MOMP | – |
